According to the supplement of paper PMC10724198:
± gives the standard deviation of the averaged measurements.

tested on: Saccharomyces cerevisiae; assay: protein stability index of tFT-peptide fusion (C-terminal peptide) (PSI (0-1 scale)); higher = more stable (slower turnover); settings: genetic background: wild type; temperature: 30 C
Protocol: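 MPS profiling in S. cerevisiae of the yeast C-terminome library: the last 12 aa of each annotated ORF are fused to the C-terminus of a sfGFP-mCherry timer, after a GGGS linker. Cells are FACS-sorted into 8 mCherry/sfGFP bins and deep-sequenced. PSI runs from 0 (unstable) to 1 (stable); wild type and das1Δ backgrounds, two technical replicates each.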

| Sequence | protein stability index |
| --- | --- |
| FFHRISHFLESA [YLR299C-A C-terminal 12 aa] | 0.695 ± 0.025 |
| FGDCHLENSHLH [SPO75 C-terminal 12 aa] | 0.719 ± 0.017 |
| FGICAIHWGIKV [COQ5 C-terminal 12 aa] | 0.411 ± 0.013 |
| FGLFKKKNKSKK [SVL3 C-terminal 12 aa] | 0.726 ± 0.073 |
| FGSSRSEWYLAL [YPL114W C-terminal 12 aa] | 0.709 ± 0.031 |
| FGWFDMNMEQGF [SEF1 C-terminal 12 aa] | 0.757 ± 0.023 |
| FHSMAHLSLHQY [YOR394C-A C-terminal 12 aa] | 0.478 ± 0.091 |
| FIREFVLKNYSK [SNO2 C-terminal 12 aa] | 0.71 ± 0.068 |
| FIYKRNKKFILN [YPQ1 C-terminal 12 aa] | 0.21 ± 0.019 |
| FKCVHTPCNVYI [YER078W-A C-terminal 12 aa] | 0.665 ± 0.037 |
| FKVDDNVDFPSA [RPN2 C-terminal 12 aa] | 0.744 ± 0.089 |
| FLLVLFFICIIL [YOL014W C-terminal 12 aa] | 0.3063 ± 0.0029 |
| FMGGFLSKGNKR [ROG3 C-terminal 12 aa] | 0.683 ± 0.029 |
| FMGLGCVISEEL [TFB3 C-terminal 12 aa] | 0.685 ± 0.097 |
| FNISDYFSDIHE [ORC5 C-terminal 12 aa] | 0.7 ± 0.023 |
| FPFELRREQTEG [PET130 C-terminal 12 aa] | 0.755 ± 0.061 |
| FPKLALVCTIFS [YGR146C-A C-terminal 12 aa] | 0.403 ± 0.009 |
| FQERIKNKNILK [CWC27 C-terminal 12 aa] | 0.729 ± 0.0083 |
| FRCKFKERKVDG [REP1 C-terminal 12 aa] | 0.674 ± 0.015 |
| FRSSAGLRSSKV [MIC10 C-terminal 12 aa] | 0.706 ± 0.011 |
| FSGDMSFTVYQL [POA1 C-terminal 12 aa] | 0.699 ± 0.041 |

| Sequence | protein stability index |
| --- | --- |
| FSIVALEVWRVG [OXR1 C-terminal 12 aa] | 0.567 ± 0.022 |
| FSSEQGNPKEEK [FMP10 C-terminal 12 aa] | 0.733 ± 0.03 |
| FTIYEKVLVMLA [CTP1 C-terminal 12 aa] | 0.20202 ± 3.5e-06 |
| FTRRGWSSFFKQ [PCL9 C-terminal 12 aa] | 0.6647 ± 0.0024 |
| FVDGIANSKKST [SRB7 C-terminal 12 aa] | 0.682 ± 0.023 |
| FVFVNEFDVYTY [GPI12 C-terminal 12 aa] | 0.704 ± 0.033 |
| FWEKRWKDGWDE [ERV1 C-terminal 12 aa] | 0.681 ± 0.031 |
| FYLHGNGSDNLF [YGR153W C-terminal 12 aa] | 0.711 ± 0.031 |
| GAALMALLGKWA [ZRT2 C-terminal 12 aa] | 0.6381 ± 0.0041 |
| GARIGLQGYKSH [YNL184C C-terminal 12 aa] | 0.688 ± 0.015 |
| GDKLISPLKKAF [TKL1 C-terminal 12 aa] | 0.711 ± 0.044 |
| GDYSFNGRVTDF [SDH8 C-terminal 12 aa] | 0.697 ± 0.011 |
| GEKKQKGQALQF [RPL42A C-terminal 12 aa] | 0.662 ± 0.051 |
| GETSSSSAVAEV [AQY1 C-terminal 12 aa] | 0.659 ± 0.03 |
| GHNWLIFTRRRL [CBT1 C-terminal 12 aa] | 0.707 ± 0.0083 |
| GIMVSPMKTNQR [SWI5 C-terminal 12 aa] | 0.6993 ± 0.0062 |
| GIVNFWSLEKAA [CIA1 C-terminal 12 aa] | 0.633 ± 0.011 |
| GIYSAVIDQTGF [RRP9 C-terminal 12 aa] | 0.6868 ± 0.003 |
| GKFKSAVFEHAG [SRV2 C-terminal 12 aa] | 0.71 ± 0.019 |
| GKKGQHVGCCVC [YFL066C C-terminal 12 aa] | 0.691 ± 0.046 |
| GKLLVPLVLYQI [YDR182W-A C-terminal 12 aa] | 0.535 ± 0.0071 |

| Sequence | protein stability index |
| --- | --- |
| GKLPSSLLSYFV [ZUO1 C-terminal 12 aa] | 0.673 ± 0.032 |
| GKRNYLLSVTFV [YCR006C C-terminal 12 aa] | 0.6385 ± 0.0019 |
| GKWYCDDCKKKL [PHO23 C-terminal 12 aa] | 0.717 ± 0.048 |
| GLSIDTRSAYFV [YPL251W C-terminal 12 aa] | 0.68 ± 0.026 |
| GLSPIRYFIPQH [YNL114C C-terminal 12 aa] | 0.6812 ± 0.0052 |
| GNLRDTLIETYS [TIF6 C-terminal 12 aa] | 0.679 ± 0.0088 |
| GNNGNNNNTTNL [PET123 C-terminal 12 aa] | 0.669 ± 0.0096 |
| GNSVNPYNGRIN [SGF73 C-terminal 12 aa] | 0.735 ± 0.0081 |
| GNTENGTLKKKH [BSC5 C-terminal 12 aa] | 0.667 ± 0.037 |
| GPCCMYIGCGCG [YBR056C-B C-terminal 12 aa] | 0.686 ± 0.032 |
| GPCVDALLSLSE [VPS9 C-terminal 12 aa] | 0.716 ± 0.048 |
| GPEKAAELAFLA [YML079W C-terminal 12 aa] | 0.6497 ± 0.0026 |
| GQVIDPLKAPFK [UTP14 C-terminal 12 aa] | 0.691 ± 0.043 |
| GRPEQAPECKQS [NAP1 C-terminal 12 aa] | 0.648 ± 0.011 |
| GSEHSDPFSTFY [DBF20 C-terminal 12 aa] | 0.7245 ± 0.0011 |
| GVAKSMGIKVVP [MRPL19 C-terminal 12 aa] | 0.686 ± 0.044 |
| GVALAGALAFLI [HOR7 C-terminal 12 aa] | 0.66173 ± 0.00053 |
| GVEKYWGILSSD [SCW10 C-terminal 12 aa] | 0.716 ± 0.028 |
| GYLIWSMGNRRR [YFL051C C-terminal 12 aa] | 0.71 ± 0.016 |
| HAAEQILKHFAA [THI4 C-terminal 12 aa] | 0.708 ± 0.015 |
| HATTVIDGKIKV [YHI9 C-terminal 12 aa] | 0.688 ± 0.039 |

| Sequence | protein stability index |
| --- | --- |
| HDDKPWYKAMLE [GAL2 C-terminal 12 aa] | 0.733 ± 0.053 |
| HFANFKRTIEEK [AMD1 C-terminal 12 aa] | 0.6925 ± 0.0065 |
| HFCYIGRITTHT [YDL114W-A C-terminal 12 aa] | 0.689 ± 0.018 |
| HFLQKFFKLFDN [YMR052C-A C-terminal 12 aa] | 0.687 ± 0.015 |
| HGGTISLCRFGG [SWT21 C-terminal 12 aa] | 0.658 ± 0.015 |
| HGNVFHIESICG [YLL047W C-terminal 12 aa] | 0.737 ± 0.031 |
| HGRESANGISKQ [YLR374C C-terminal 12 aa] | 0.65531 ± 0.00026 |
| HGTAKALAAAKK [RPL29 C-terminal 12 aa] | 0.6697 ± 0.0058 |
| HIRKERTLYIYI [PIH1 C-terminal 12 aa] | 0.351 ± 0.0044 |
| HKKEVVSKGDDY [MAP2 C-terminal 12 aa] | 0.653 ± 0.026 |
| HLGKFFVKQKIL [ERP1 C-terminal 12 aa] | 0.152 ± 0.0043 |
| HLSGSTIDTTVV [DSE1 C-terminal 12 aa] | 0.685 ± 0.012 |
| HSDSADTHTHKH [MMT2 C-terminal 12 aa] | 0.696 ± 0.029 |
| HSITEGSYIYIK [YOR062C C-terminal 12 aa] | 0.676 ± 0.05 |
| HSVWSQSTINND [YML034C-A C-terminal 12 aa] | 0.702 ± 0.066 |
| HVCVDVDVIVST [TRM12 C-terminal 12 aa] | 0.6574 ± 0.001 |
| HVKDHQPGKPFI [YDR433W C-terminal 12 aa] | 0.708 ± 0.063 |
| HYPSSDIRGDIL [YOR161C-C C-terminal 12 aa] | 0.69973 ± 0.00023 |
| IAFPQRKYAIKA [RPL35A C-terminal 12 aa] | 0.33 ± 0.01 |
